Assay results: patent US20070134215A1

Target: BMP-2
Assay: cell-based or functional assay

- appearance of beating EBs (myocardial differentiation-inducing effect of Noggin protein at 150 ng/mL on ES cells, floating culture): > 5 ng/mL
Substance: Recombinant Mouse Noggin/Fc Chimera protein (R&D Systems) (from UniProt P97466 28-232) (Fc fusion)
